Where no end group is shown, it is not given here. [ ]: non-standard residue; d: D form. pY = N[C@@H](Cc1ccc(OP(=O)(O)O)cc1)C(=O)O
Molecular target: T1, recombinant ovine wild type SOCS2 (Suppressor of Cytokine Signaling 2) (sheep (ovine), UniProt A0ACI6S499 1-198)
T1 construct: also called rOvSOCS2 WT; SOCS2-WT
T1 sequence (looked up): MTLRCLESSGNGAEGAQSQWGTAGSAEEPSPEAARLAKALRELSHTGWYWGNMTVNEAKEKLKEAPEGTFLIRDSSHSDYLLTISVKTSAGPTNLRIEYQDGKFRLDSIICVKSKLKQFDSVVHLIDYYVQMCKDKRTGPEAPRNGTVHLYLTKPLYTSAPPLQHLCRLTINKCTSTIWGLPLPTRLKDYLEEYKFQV
Assay: SPR; BIAcore T200, single-cycle kinetics; biotinylated GHR pY-peptide immobilised on SA chip (75 RU), scramble peptide as reference; five injections of SOCS2 protein 100 nM-8.1 μM, 120 s each; 1:1 Langmuir fit; 25°C, HBS-EP buffer
Conditions: both partners purified

koff: 0.0016 s⁻¹
kon: 828 M⁻¹ s⁻¹
B1: phosphorylated peptide from the growth hormone receptor (pY595 GHR), biotinylated (peptide)
chain: PVPD[pY]TSIHIV
modifications: also: biotinylated, site not given here

Source: paper PMC4676722 (PLoS Genetics, 2015)
